Assay results as given in patent publication US9176064B2, “Bisubstrate fluorescent probes for protein kinase CK2” (University of Tartu, priority 2012, dated 2015).
Where a SMILES comes first, the peptide text is derived from it. [ ]: non-standard residue; d: D form. The star is where a group is joined. X1 = O=C(CCCCCCCn1cnc2c(Br)c(Br)c(Br)c(Br)c21)*

Legend:
Assay in all cases: Kinase panel residual activity
Format in all cases: biochemical
Conditions in all cases: compound at 1 micromolar
PIM2 = PIM2 (Homo sapiens, UniProt Q9P1W9)
Chain of PIM2 (Q9P1W9 whole entry, species assumed): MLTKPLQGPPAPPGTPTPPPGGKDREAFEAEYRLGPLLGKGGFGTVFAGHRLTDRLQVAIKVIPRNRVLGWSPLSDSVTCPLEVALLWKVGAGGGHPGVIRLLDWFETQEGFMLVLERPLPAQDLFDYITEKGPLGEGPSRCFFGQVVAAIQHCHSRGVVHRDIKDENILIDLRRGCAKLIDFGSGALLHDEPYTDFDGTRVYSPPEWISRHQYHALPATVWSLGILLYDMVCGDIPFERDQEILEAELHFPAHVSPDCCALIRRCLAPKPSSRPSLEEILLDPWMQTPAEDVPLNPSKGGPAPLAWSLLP

YES1 = YES1 (Homo sapiens, UniProt P07947)
Chain of YES1 (P07947 whole entry, species assumed): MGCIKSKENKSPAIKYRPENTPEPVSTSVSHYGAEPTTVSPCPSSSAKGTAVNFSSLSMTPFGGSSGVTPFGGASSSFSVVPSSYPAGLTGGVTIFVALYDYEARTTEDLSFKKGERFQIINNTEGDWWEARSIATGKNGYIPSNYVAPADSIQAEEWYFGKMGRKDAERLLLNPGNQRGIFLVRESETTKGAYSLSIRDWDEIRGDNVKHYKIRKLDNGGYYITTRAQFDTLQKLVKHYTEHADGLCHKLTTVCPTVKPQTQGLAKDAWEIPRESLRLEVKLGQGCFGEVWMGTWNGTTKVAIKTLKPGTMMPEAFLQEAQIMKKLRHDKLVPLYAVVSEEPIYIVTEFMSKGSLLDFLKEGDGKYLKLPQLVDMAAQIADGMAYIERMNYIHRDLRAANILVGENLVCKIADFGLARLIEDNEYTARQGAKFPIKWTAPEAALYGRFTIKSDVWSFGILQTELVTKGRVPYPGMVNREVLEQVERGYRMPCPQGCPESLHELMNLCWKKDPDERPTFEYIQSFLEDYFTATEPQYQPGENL

IRAK1 = IRAK1 (Homo sapiens, UniProt P51617)
Chain of IRAK1 (P51617 whole entry, species assumed): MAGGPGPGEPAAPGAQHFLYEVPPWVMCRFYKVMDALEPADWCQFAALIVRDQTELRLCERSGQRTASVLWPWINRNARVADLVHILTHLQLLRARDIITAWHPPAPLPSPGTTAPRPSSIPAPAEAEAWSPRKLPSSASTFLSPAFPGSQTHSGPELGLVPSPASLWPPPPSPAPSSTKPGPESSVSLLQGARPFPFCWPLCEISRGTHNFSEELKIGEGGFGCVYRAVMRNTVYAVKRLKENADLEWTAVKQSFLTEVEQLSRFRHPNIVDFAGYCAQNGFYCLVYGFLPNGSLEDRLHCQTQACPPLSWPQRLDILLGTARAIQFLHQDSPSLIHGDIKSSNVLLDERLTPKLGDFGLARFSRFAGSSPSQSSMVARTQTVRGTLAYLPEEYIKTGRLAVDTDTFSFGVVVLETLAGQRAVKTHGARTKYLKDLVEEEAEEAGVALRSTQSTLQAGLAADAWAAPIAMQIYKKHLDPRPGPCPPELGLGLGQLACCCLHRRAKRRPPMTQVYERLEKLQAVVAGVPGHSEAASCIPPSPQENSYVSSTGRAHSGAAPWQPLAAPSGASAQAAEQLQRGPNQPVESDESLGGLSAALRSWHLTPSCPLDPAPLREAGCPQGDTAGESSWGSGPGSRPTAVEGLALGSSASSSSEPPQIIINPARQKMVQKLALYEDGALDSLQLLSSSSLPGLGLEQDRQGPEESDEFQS

PKBb = PKBb (Homo sapiens, UniProt P31751)
Chain of PKBb (P31751 whole entry): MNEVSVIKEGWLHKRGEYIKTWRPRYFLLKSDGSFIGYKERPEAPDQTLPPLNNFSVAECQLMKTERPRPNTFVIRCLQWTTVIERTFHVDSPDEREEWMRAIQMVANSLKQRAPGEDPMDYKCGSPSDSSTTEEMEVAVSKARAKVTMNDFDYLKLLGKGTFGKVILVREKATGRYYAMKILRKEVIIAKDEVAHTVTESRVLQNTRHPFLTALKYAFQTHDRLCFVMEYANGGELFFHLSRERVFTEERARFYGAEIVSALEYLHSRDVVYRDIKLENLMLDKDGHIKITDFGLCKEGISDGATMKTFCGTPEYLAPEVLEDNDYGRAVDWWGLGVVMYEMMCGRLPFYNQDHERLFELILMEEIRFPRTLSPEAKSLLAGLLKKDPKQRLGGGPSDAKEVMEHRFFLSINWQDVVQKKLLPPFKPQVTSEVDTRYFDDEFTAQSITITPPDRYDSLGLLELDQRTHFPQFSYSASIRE

CHK2 = CHK2 (Homo sapiens, UniProt O96017)
Chain of CHK2 (O96017 whole entry, species assumed): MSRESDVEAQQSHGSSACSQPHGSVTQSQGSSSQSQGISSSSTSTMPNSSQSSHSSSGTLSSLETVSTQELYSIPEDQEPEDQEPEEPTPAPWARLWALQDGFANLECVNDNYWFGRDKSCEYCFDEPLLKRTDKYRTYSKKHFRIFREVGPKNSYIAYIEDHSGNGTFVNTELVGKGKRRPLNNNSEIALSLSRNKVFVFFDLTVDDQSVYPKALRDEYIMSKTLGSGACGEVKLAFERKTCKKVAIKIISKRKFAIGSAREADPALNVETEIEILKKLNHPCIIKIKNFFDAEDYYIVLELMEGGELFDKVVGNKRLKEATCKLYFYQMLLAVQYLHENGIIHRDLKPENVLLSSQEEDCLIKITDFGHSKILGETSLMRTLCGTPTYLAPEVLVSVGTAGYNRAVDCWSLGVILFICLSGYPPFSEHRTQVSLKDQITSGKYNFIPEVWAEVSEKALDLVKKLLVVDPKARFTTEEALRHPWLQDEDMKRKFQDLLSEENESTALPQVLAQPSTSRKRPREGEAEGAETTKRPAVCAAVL

p38g MAPK = target: T1, p38g MAPK (Homo sapiens, UniProt P53778)
T1 sequence (P53778 1-367): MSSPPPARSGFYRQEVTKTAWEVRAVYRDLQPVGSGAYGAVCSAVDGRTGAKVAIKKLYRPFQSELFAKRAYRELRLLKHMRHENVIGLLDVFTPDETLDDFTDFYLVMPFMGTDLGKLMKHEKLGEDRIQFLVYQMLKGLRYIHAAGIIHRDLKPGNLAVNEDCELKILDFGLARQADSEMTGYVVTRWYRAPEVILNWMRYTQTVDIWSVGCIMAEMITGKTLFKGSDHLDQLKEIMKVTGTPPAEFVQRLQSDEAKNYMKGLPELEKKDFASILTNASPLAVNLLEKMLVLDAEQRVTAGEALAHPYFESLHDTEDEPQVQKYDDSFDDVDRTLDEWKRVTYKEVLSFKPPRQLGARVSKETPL

ERK5 = ERK5 (Homo sapiens, UniProt Q13164)
Chain of ERK5 (Q13164 whole entry, species assumed): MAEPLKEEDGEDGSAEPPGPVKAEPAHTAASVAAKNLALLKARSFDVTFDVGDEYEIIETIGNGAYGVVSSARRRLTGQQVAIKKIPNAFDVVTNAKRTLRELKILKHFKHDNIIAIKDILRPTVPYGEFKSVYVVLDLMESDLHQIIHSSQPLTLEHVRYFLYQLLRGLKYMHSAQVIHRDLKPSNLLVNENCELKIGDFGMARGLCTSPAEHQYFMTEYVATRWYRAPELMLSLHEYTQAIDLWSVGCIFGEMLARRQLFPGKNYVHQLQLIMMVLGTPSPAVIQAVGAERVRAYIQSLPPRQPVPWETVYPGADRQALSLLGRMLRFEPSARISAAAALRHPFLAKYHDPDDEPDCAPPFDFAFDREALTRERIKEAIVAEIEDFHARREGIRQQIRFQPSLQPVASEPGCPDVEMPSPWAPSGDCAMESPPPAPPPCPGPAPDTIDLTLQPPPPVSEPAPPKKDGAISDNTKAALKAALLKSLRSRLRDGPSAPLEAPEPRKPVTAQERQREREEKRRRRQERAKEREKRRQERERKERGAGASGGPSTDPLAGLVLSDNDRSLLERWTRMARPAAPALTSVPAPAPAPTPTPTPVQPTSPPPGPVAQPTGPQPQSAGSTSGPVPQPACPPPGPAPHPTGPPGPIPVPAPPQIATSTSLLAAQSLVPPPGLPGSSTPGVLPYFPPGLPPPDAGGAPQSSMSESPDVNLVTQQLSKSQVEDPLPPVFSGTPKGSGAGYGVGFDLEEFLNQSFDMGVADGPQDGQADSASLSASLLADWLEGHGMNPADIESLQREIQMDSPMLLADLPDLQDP

SIK3 = SIK3 (Homo sapiens, UniProt Q9Y2K2)
PRAK = target: T2, PRAK (Homo sapiens, UniProt Q8IW41)
T2 sequence (Q8IW41 1-473): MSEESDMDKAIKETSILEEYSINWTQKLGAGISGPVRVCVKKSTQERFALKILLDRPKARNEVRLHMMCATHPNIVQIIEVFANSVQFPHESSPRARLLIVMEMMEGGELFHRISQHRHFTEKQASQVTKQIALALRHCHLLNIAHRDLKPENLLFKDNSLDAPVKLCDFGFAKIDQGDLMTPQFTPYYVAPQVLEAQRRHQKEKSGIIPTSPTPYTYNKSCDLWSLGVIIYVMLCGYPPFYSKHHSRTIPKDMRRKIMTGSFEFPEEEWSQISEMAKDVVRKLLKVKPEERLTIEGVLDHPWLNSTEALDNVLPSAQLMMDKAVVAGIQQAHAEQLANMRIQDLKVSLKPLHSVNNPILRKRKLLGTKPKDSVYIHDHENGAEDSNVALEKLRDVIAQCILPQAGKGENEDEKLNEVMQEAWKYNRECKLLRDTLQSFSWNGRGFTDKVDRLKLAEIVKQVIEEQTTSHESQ

WNK1 = WNK1 (Homo sapiens, UniProt Q9H4A3)
SRPK1 = SRPK1 (Homo sapiens, UniProt Q96SB4)
Chain of SRPK1 (Q96SB4 whole entry, species assumed): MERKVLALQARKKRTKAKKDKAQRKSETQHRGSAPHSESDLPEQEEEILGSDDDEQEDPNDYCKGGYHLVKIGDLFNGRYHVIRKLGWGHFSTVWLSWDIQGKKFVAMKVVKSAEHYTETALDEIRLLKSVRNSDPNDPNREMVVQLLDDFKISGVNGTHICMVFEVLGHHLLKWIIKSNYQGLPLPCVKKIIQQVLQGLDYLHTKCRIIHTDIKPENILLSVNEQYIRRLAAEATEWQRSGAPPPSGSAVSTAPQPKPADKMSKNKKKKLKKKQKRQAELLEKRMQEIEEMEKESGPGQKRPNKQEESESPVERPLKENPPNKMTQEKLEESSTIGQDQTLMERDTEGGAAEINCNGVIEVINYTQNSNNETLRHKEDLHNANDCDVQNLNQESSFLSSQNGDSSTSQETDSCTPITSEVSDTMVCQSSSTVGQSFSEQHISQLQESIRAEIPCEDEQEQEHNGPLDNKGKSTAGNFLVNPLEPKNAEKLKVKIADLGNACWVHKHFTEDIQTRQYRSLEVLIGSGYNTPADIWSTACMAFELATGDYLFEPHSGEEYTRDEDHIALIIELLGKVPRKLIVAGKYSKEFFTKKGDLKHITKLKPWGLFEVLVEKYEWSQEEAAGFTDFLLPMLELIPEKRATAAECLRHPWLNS

MNK1 = MNK1 (Homo sapiens, UniProt Q9BUB5)
Chain of MNK1 (Q9BUB5 whole entry, species assumed): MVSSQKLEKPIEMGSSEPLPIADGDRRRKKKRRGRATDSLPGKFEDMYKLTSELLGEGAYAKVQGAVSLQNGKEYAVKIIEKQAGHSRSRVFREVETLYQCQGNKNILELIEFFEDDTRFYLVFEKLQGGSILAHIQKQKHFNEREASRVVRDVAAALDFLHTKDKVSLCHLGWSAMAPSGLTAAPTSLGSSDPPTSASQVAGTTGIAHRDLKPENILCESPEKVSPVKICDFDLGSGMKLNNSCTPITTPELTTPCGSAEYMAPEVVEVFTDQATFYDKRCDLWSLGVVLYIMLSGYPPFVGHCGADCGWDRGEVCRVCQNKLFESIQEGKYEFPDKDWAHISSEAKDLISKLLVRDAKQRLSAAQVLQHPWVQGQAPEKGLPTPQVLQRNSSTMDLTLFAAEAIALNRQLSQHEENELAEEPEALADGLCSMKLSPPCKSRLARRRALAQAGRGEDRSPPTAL

ERK8 = target: T3, ERK8 (Homo sapiens, UniProt Q8TD08)
T3 sequence (Q8TD08 1-544): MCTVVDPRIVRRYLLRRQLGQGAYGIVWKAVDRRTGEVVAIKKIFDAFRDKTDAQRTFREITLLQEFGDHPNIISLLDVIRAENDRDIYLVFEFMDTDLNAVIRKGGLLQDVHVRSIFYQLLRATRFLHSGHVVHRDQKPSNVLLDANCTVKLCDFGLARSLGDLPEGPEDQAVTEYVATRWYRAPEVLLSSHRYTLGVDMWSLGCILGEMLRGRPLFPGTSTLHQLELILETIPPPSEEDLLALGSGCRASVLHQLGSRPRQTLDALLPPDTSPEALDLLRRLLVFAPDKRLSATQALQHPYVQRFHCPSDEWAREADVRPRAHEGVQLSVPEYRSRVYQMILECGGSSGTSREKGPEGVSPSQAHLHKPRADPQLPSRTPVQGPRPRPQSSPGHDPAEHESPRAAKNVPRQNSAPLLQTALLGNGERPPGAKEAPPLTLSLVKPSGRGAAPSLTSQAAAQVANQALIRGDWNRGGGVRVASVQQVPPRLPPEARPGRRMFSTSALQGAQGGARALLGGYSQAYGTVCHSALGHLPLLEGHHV

HIPK1 = HIPK1 (Homo sapiens, UniProt Q86Z02)
ERK2 = ERK2 (Homo sapiens, UniProt P28482)
Chain of ERK2 (P28482 whole entry, species assumed): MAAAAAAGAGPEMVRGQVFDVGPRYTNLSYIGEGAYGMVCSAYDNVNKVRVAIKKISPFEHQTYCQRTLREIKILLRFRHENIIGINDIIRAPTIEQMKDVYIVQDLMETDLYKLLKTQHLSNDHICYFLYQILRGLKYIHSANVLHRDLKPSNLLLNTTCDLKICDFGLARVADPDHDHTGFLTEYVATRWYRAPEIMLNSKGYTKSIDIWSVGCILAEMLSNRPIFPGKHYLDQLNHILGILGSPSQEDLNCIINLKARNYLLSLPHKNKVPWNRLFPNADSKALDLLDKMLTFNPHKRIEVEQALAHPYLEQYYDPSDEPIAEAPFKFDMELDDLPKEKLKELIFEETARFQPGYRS

Structure (SMILES): NCCCC[C@H](NC(=O)[C@H](CC(=O)O)NC(=O)[C@H](CC(=O)O)NC(=O)[C@H](CC(=O)O)NC(=O)[C@H](CC(=O)O)NC(=O)[C@H](CC(=O)O)NC(=O)[C@@H](CC(=O)O)NC(=O)CCCCCCCn1cnc2c(Br)c(Br)c(Br)c(Br)c21)C(=O)O [TBBI-OcA-(D-Asp)-(L-Asp)5-(L-Lys)-OH] (X1-[dD]DDDDDK-OH)
- remaining activity at 1 µM (PIM2): 92%
- remaining activity at 1 µM (YES1): 103%
- remaining activity at 1 µM (IRAK1): 89%
- remaining activity at 1 µM (PKBb): 72%
- remaining activity at 1 µM (CHK2): 101%
- remaining activity at 1 µM (p38g MAPK): 97%
- remaining activity at 1 µM (ERK5): 98%
- remaining activity at 1 µM (SIK3): 74%
- remaining activity at 1 µM (PRAK): 74%
- remaining activity at 1 µM (WNK1): 88%
- remaining activity at 1 µM (SRPK1): 61%
- remaining activity at 1 µM (MNK1): 99%
- remaining activity at 1 µM (ERK8): 25%
- remaining activity at 1 µM (HIPK1): 68%
- remaining activity at 1 µM (ERK2): 92%
